{"source": "paper PMC10665462", "about": "(2023)", "binders": {"B1": {"name": "BTN2A1 ID271 (JM+B30.2) (protein)", "chain": "KLQKEKKILSGEKEFERETREIALKELEKERVQKEEELQVKEKLQEELRWRRTFLHAVDVVLDPDTAHPDLFLSEDRRSVRRCPFRHLGESVPDNPERFDSQPCVLGRESFASGKHYWEVEVENVIEWTVGVCRDSVERKGEVLLIPQNGFWTLEMHKGQYRAVSSPDRILPLKESLCRVGVFLDYEAGDVSFYNMRDRSHIYTCPRSAFSVPVRPFFRLGCEDSPIFICPALTGANGVTVPEEGLTLHRVGTHQSL", "modifications": "HMBPP"}, "B2": {"name": "BTN2A1 ID271 (JM+B30.2) (protein)", "chain": "KLQKEKKILSGEKEFERETREIALKELEKERVQKEEELQVKEKLQEELRWRRTFLHAVDVVLDPDTAHPDLFLSEDRRSVRRCPFRHLGESVPDNPERFDSQPCVLGRESFASGKHYWEVEVENVIEWTVGVCRDSVERKGEVLLIPQNGFWTLEMHKGQYRAVSSPDRILPLKESLCRVGVFLDYEAGDVSFYNMRDRSHIYTCPRSAFSVPVRPFFRLGCEDSPIFICPALTGANGVTVPEEGLTLHRVGTHQSL", "modifications": "4-M-HMBPP"}}, "target": "BTN3A1 BFI (JM+B30.2) (Homo sapiens, UniProt O00481)", "sequence (O00481 272-513)": "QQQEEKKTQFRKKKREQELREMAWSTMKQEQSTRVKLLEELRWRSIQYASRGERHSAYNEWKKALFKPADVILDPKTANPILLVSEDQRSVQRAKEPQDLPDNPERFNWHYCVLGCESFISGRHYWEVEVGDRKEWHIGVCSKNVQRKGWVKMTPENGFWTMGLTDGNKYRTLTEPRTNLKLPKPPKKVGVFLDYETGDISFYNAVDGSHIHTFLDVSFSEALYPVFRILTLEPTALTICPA", "test": "ITC"}
{"binder": "B1", "values": [{"measurement": "Kd", "result": 0.78, "unit": "µM"}]}
{"binder": "B2", "values": [{"measurement": "Kd", "result": 190, "unit": "µM"}]}
